Laboratory results: the supplement of paper PMC11246515
± gives the standard deviation of the averaged measurements.

Assay: total protein half-life in vivo (active degradation + dilution); higher = more stable protein
[1] = E. coli NCM3722 delta-clpP delta-lon delta-hslV, growth: N-lim chemostat, doubling time 6 h
[2] = E. coli NCM3722 delta-clpP, growth: N-lim chemostat, doubling time 6 h
[3] = E. coli NCM3722 delta-hslV, growth: N-lim chemostat, doubling time 6 h
[4] = E. coli NCM3722 delta-lon, growth: N-lim chemostat, doubling time 6 h
[5] = E. coli NCM3722 delta-smpB, growth: N-lim chemostat, doubling time 6 h
[6] = wild type E. coli NCM3722, growth: C-lim chemostat, doubling time 3 h
[7] = wild type E. coli NCM3722, growth: C-lim chemostat, doubling time 6 h
[8] = wild type E. coli NCM3722, growth: C-lim chemostat, doubling time 12 h
[9] = wild type E. coli NCM3722, growth: N-lim chemostat, doubling time 6 h
[10] = wild type E. coli NCM3722, growth: N-lim chemostat, doubling time 12 h
[11] = wild type E. coli NCM3722, growth: P-lim chemostat, doubling time 6 h
[12] = wild type E. coli NCM3722, growth: P-lim chemostat, doubling time 12 h

| Sequence | total protein half-life in vivo [1] | total protein half-life in vivo [2] | total protein half-life in vivo [3] | total protein half-life in vivo [4] | total protein half-life in vivo [5] | total protein half-life in vivo [6] | total protein half-life in vivo [7] | total protein half-life in vivo [8] | total protein half-life in vivo [9] | total protein half-life in vivo [10] | total protein half-life in vivo [11] | total protein half-life in vivo [12] |
| --- | --- | --- | --- | --- | --- | --- | --- | --- | --- | --- | --- | --- |
| MSEISRQEFQRRRQALVEQMQPGSAALIFAAPEVTRSADSEYPYRQNSDFWYFTGFNEPEAVLVLIKSDDTHNHSVLFNRVRDLTAEIWFGRRLGQDAAPEKLGVDRALAFSEINQQLYQLLNGLDVVYHAQGEYAYADVIVNSALEKLRKGSRQNLTAPATMIDWRPVVHEMRLFKSPEEIAVLRRAGEITAMAHTRAMEKCRPGMFEYHLEGEIHHEFNRHGARYPSYNTIVGSGENGCILHYTENECEMRDGDLVLIDAGCEYKGYAGDITRTFPVNGKFTQAQREIYDIVLESLETSLRLYRPGTSILEVTGEVVRIMVSGLVKLGILKGDVDELIAQNAHRPFFMHGLSHWLGLDVHDVGVYGQDRSRILEPGMVLTVEPGLYIAPDAEVPEQYRGIGIRIEDDIVITETGNENLTASVVKKPEEIEALMVAARKQ | 5.813 ± 0.036 h | 6.45 ± 0.88 h | 5.23 ± 0.15 h | 6 ± 0.092 h | 5.36 ± 0.3 h | 3.12 ± 0.1 h | 6 ± 0.22 h | 12.4 ± 1.5 h | 5.53 ± 0.15 h | 10.3 ± 0.72 h | 5.95 ± 0.51 h | 12.8 ± 0.42 h |
| MKIGTQNQAFFPENILEKFRYIKEMGFDGFEIDGKLLVNNIEEVKAAIKETGLPVTTACGGYDGWIGDFIEERRLNGLKQIERILEALAEVGGKGIVVPAAWGMFTFRLPPMTSPRSLDGDRKMVSDSLRVLEQVAARTGTVVYLEPLNRYQDHMINTLADARRYIVENDLKHVQIIGDFYHMNIEEDNLAQALHDNRDLLGHVHIADNHRYQPGSGTLDFHALFEQLRADNYQGYVVYEGRIRAEDPAQAYRDSLAWLRTC | 5.87 ± 0.64 h | – | – | – | – | – | – | – | – | – | – | – |
| MRRLPGILLLTGAALVVIAALLVSGLRIALPHLDAWRPEILNKIESATGMPVEASQLSASWQNFGPTLEAHDIRAELKDGGEFSVKRVTLALDVWQSLLHMRWQFRDLTFWQLRFRTNTPITSGGSDDSLEASHISDLFLRQFDHFDLRDSEVSFLTPSGQRAELAIPQLTWLNDPRRHRAEGLVSLSSLTGQHGVMQVRMDLRDDEGLLSNGRVWLQADDIDLKPWLGKWMQDNIALETAQFSLEGWMTIDKGDVTGGDVWLKQGGASWLGEKQTHTLSVDNLTAHITRENPGWQFSIPDTRITMDGKPWPSGALTLAWIPEQDVGGKDNKRSDELRIRASNLELAGLEGIRPLAAKLSPALGDVWRSTQPSGKINTLALDIPLQAADKTRFQASWSDLAWKQWKLLPGAEHFSGTLSGSVENGLLTASMKQAKMPYETVFRAPLEIADGQATISWLNNNKGFQLDGRNIDVKAKAVHARGGFRYLQPANDEPWLGILAGISTDDGSQAWRYFPENLMGKDLVDYLSGAIQGGEADNATLVYGGNPQLFPYKHNEGQFEVLVPLRNAKFAFQPDWPALTNLDIELDFINDGLWMKTDGVNLGGVRASNLTAVIPDYSKEKLLIDADIKGPGKAVGPYFDETPLKDSLGATLQELQLDGDVNARLHLDIPLNGELVTAKGEVTLRNNSLFIKPLDSTLKNLSGKFSFINSDLQSEPLTASWFNQPLNVDFSTKEGAKAYQVAVNLNGNWQPAKTGVLPEAVNEALSGSVAWDGKVGIDLPYHAGATYNIELNGDLKNVSSHLPSPLAKPAGEPLAVNVKVDGNLNSFELTGQAGADNHFNSRWLLGQKLTLDRAIWAADSKTLPPLPEQSGVELNMPPMNGAEWLALFQKGAAESVGGAASFPQHITLRTPMLSLGNQQWNNLSIVSQPTANGTLVEAQGREINATLAMRNNAPWLANIKYLYYNPSVAKTRGDSTPSSPFPTTERINFRGWPDAQIRCTECWFWGQKFGRIDSDITISGDTLTLTNGLIDTGFSRLTADGEWVNNPGNERTSLKGKLRGQKIDAAAEFFGVTTPIRQSSFNVDYDLHWRKAPWQPDEATLNGIIHTQLGKGEITEINTGHAGQLLRLLSVDALMRKLRFDFRDTFGEGFYFDSIRSTAWIKDGVMHTDDTLVDGLEADIAMKGSVNLVRRDLNMEAVVAPEISATVGVAAAFAVNPIVGAAVFAASKVLGPLWSKVSILRYHISGPLDDPQINEVLRQPRKEKAQ | 6.25 ± 0.48 h | 6.38 ± 0.3 h | 6.18 ± 0.12 h | 6.21 ± 0.18 h | 5.844 ± 0.013 h | 3.185 ± 0.015 h | 6.62 ± 0.46 h | 12.6 ± 0.73 h | 6.11 ± 0.16 h | 12.2 ± 1.2 h | 5.67 ± 0.26 h | 9.67 ± 1.6 h |
| MNQVAVVIGGGQTLGAFLCHGLAAEGYRVAVVDIQSDKAANVAQEINAEYGESMAYGFGADATSEQSVLALSRGVDEIFGRVDLLVYSAGIAKAAFISDFQLGDFDRSLQVNLVGYFLCAREFSRLMIRDGIQGRIIQINSKSGKVGSKHNSGYSAAKFGGVGLTQSLALDLAEYGITVHSLMLGNLLKSPMFQSLLPQYATKLGIKPDQVEQYYIDKVPLKRGCDYQDVLNMLLFYASPKASYCTGQSINVTGGQVMF | 4.14 h | – | – | – | – | 1.19 ± 0.41 h | – | 1.43 h | – | – | – | – |
| MPNIVLSRIDERLIHGQVGVQWVGFAGANLVLVANDEVAEDPVQQNLMEMVLAEGIAVRFWTLQKVIDNIHRAADRQKILLVCKTPADFLTLVKGGVPVNRINVGNMHYANGKQQIAKTVSVDAGDIAAFNDLKTAGVECFVQGVPTEPAVDLFKLL | – | – | – | – | – | 3.26 h | 5.07 ± 0.6 h | 8.17 h | – | – | – | – |
| MAKNYAALARSVIAALGGVDNISAVTHCMTRLRFVIKDDALIDSPTLKTIPGVLGVVRSDNQCQVIIGNTVSQAFQEVVSLLPGDMQPAQPVGKPKLTLRRIGAGILDALIGTMSPLIPAIIGGSMVKLLAMILEMSGVLTKGSPTLTILNVIGDGAFFFLPLMVAASAAIKFKTNMSLAIAIAGVLVHPSFIELMAKAAQGEHVEFALIPVTAVKYTYTVIPALVMTWCLSYIERWVDSITPAVTKNFLKPMLIVLIAAPLAILLIGPIGIWIGSAISALVYTIHGYLGWLSVAIMGALWPLLVMTGMHRVFTPTIIQTIAETGKEGMVMPSEIGANLSLGGSSLAVAWKTKNPELRQTALAAAASAIMAGISEPALYGVAIRLKRPLIASLISGFICGAVAGMAGLASHSMAAPGLFTSVQFFDPANPMSIVWVFAVMALAVVLSFILTLLLGFEDIPVEEAAAQARKYQSVQPTVAKEVSLN | – | – | – | – | – | 1.77 ± 0.078 h | – | 3.55 h | – | – | – | – |
| MAEWSGEYISPYAEHGKKSEQVKKITVSIPLKVLKILTDERTRRQVNNLRHATNSELLCEAFLHAFTGQPLPDDADLRKERSDEIPEAAKEIMREMGINPETWEY [P0A8U6] | > 8 h | 5.7 h | 5.96 ± 0.098 h | 6.2 ± 0.13 h | 6.26 ± 0.61 h | 3.19 ± 0.061 h | 5.63 ± 0.29 h | 6.09 h | 4.87 ± 0.35 h | 10.7 ± 6.7 h | 4.35 ± 0.99 h | 12 ± 4.2 h |
